Data on 2 molecules can be found in US20100028924A1, “Method Of Diagnosing Pon1-Hdl Associated Lipid Disorders” (Rappaport Family Institute Research in the Medical Sciences, priority 2006, published 2010).

Common to all, as to type: biochemical
One data set deals with rHDL-apoA-I. Description: Stimulation of enzymatic activity of human PON1 192 isozymes by rHDL-apoA-I. The settings on record: all the lactones tested; rHDL/PON1 ratio of 50. How it is done: FIGS. 5A-B are graphs showing the inactivation and catalytic stimulation of the human PON1 192R/Q isozymes. FIG. 5A is a line graph showing the inactivation kinetics of human PON1-192R and -192Q in the presence of rHDL-apoA-I. The delipidated isozymes (0.2 μM) were incubated with a 50-fold molar excess of rHDL-apoA-I in activity buffer, and subjected to inactivation by NTA and β-mercaptoethanol (each at 5 mM) at 25° C. Residual activity determined as above (FIG. 1) and data were fitted to a double-exponential function. FIG. 5B is a bar graph showing stimulation of the enzymatic activity of human PON1-192R and -192Q by rHDL-apoA-I. The delipidated isozymes were incubated with a 50-fold molar excess of rHDL-apoA-I, and enzymatic activity was determined with various substrates (at 1 mM for all the substrates, except TBBL at 0.25 mM). The activity is presented in relation to the initial activity of the delipidated enzymes (percentage of stimulation). […]
Human PON1-192R and Q isozymes purified from pooled blood samples [Gan, K. N., et al., Drug Metab Dispos, 1991. […] Stimulation of enzymatic activities was measured with various substrates at 1 mM concentration, except for TBBL (0.25 mM).
HDL-mediated stimulation of the enzymatic activity of human PON1 isozymes was determined by incubating PON1 with the highest rHDL-apoA-I concentration (corresponding to the rHDL/PON1 ratio of 50) (FIG. 5B). […]

For the next data set, the system named is apoA-I rHDL. Description: Inactivation kinetics of human PON1 192 isozymes on rHDL-apoA-I (NTA/β-mercaptoethanol). The settings on record: 50-fold molar excess rHDL-apoA-I; NTA and β-mercaptoethanol each 5 mM, 25° C. As to the method: FIGS. 5A-B are graphs showing the inactivation and catalytic stimulation of the human PON1 192R/Q isozymes. FIG. 5A is a line graph showing the inactivation kinetics of human PON1-192R and -192Q in the presence of rHDL-apoA-I. The delipidated isozymes (0.2 μM) were incubated with a 50-fold molar excess of rHDL-apoA-I in activity buffer, and subjected to inactivation by NTA and β-mercaptoethanol (each at 5 mM) at 25° C. Residual activity determined as above (FIG. 1) and data were fitted to a double-exponential function. FIG. 5B is a bar graph showing stimulation of the enzymatic activity of human PON1-192R and -192Q by rHDL-apoA-I. The delipidated isozymes were incubated with a 50-fold molar excess of rHDL-apoA-I, and enzymatic activity was determined with various substrates (at 1 mM for all the substrates, except TBBL at 0.25 mM). The activity is presented in relation to the initial activity of the delipidated enzymes (percentage of stimulation). Each bar represents the mean and S.D. of at least two independent measurements;
Human PON1-192R and Q isozymes purified from pooled blood samples [Gan, K. N., et al., Drug Metab Dispos, 1991. 19(1): p. 100-6] were kindly provided by Dr. Dragomir Draganov (University of Michigan, Ann Arbour), and stored in presence of 0.1% tergitol and 20% glycerol. Prior to assay, these samples were briefly delipidated [Gaidukov, L. and D. S. Tawfik, Biochemistry, 2005. 44(35): p. 11843-54] and dialyzed against activity buffer to remove the tergitol and glycerol that interfere with HDL binding. Dialyzed samples (0.2 μM) were incubated with rHDL (10 μM). Stability assays were performed at 25° C., in activity buffer supplemented with nitrilotriacetic acid (NTA) and β-mercaptoethanol, both at 5 mM. Data analysis was performed as described above for rePON1s. Stimulation of enzymatic activities was measured with various substrates at 1 mM concentration, except for TBBL (0.25 mM).
The progress of inactivation of human PON1 isozymes anchored on rHDL-apoA-I is illustrated in FIG. 5A. Inactivation of both isozymes followed a two-phase kinetics with similar inactivation rates, but different partitioning between the HDL-bound and unbound phases, as detailed in Table 4 hereinbelow. Amplitudes (A) and kinetic rates of inactivation (k^inactiv) were derived by fitting the data to a double-exponential curve.

A short description of data set [1]: Dihydrocoumarin hydrolysis by PON1 isozymes (Vmax). The settings on record: Vmax^Q=1.125*Vmax^R. How it is done:
Determination of a total PON1 level may be effected by any method known in the art. For example, the level of total PON1 may be determined using an antibody specific for PON1. Preferably, the level of total PON1 is determined by measuring the level of total enzymatically active PON1. Thus for example, the level of total PON1 may be measured using an ELISA assay. Such assays are known in the art—see for example Blatter et al, Biochem J 304 (Pt 2): 549-554. An exemplary method for measuring total PON1's serum concentration comprises assaying PON1 dihydrocoumarin hydrolysis as described in Example 3.

B1: human PON1-192R: human PON1 192R isozyme purified from pooled blood samples (protein)
chain: AKLIALTLLGMGLALFRNHQSSYQTRLNALREVQPVELPNCNLVKGIETGSEDLEILPNGLAFISSGLKYPGIKSFNPNSPGKILLMDLNEEDPTVLELGITGSKFDVSSFNPHGISTFTDEDNAMYLLVVNHPDAKSTVELFKFQEEEKSLLHLKTIRHKLLPNLNDIVAVGPEHFYGTNDHYFLDPYLRSWEMYLGLAWSYVVYYSPSEVRVVAEGFDFANGINISPDGKYVYIAELLAHKIHVYEKHANWTLTPLKSLDFNTLVDNISVDPETGDLWVGCHPNGMKIFFYDSENPPASEVLRIQNILTEEPKVTQVYAENGTVLQGSTVASVYKGKLLIGTVFHKALYCEL
B1: the “fold higher activation level than 192Q” value in the data set on rHDL-apoA-I is given as “about 2 fold”. In addition, in the data set on apoA-I rHDL, the “A2(%) (slow phase, HDL-bound fraction)” value is 87%; the “k1^inactiv (first, fast phase)” value came to 0.4 h⁻¹; the “k2^inactiv (second, slow phase)” value was found to be 0.01 h⁻¹.

B2: human PON1-192Q: human PON1 192Q isozyme purified from pooled blood samples (protein)
chain: AKLIALTLLGMGLALFRNHQSSYQTRLNALREVQPVELPNCNLVKGIETGSEDLEILPNGLAFISSGLKYPGIKSFNPNSPGKILLMDLNEEDPTVLELGITGSKFDVSSFNPHGISTFTDEDNAMYLLVVNHPDAKSTVELFKFQEEEKSLLHLKTIRHKLLPNLNDIVAVGPEHFYGTNDHYFLDPYLQSWEMYLGLAWSYVVYYSPSEVRVVAEGFDFANGINISPDGKYVYIAELLAHKIHVYEKHANWTLTPLKSLDFNTLVDNISVDPETGDLWVGCHPNGMKIFFYDSENPPASEVLRIQNILTEEPKVTQVYAENGTVLQGSTVASVYKGKLLIGTVFHKALYCEL
For the molecule B2, the “ratio of Vmax of PON1-192Q and -192R isozymes toward dihydrocoumarin” value in data set [1] was 1.125. In the data set on apoA-I rHDL, the “A2(%) (slow phase, HDL-bound fraction)” value was 72%; the “k1^inactiv (first, fast phase)” value came to 0.6 h⁻¹; the “k2^inactiv (second, slow phase)” value turned out to be 0.01 h⁻¹.
